Laboratory results published in US20200317768A1 (published 2020).
Residue numbers refer to the chain shown, from its start.

B1: M103205H795-MY466/M103202L889-SK1 (antibody, human IgG1, kappa)
heavy: QVTLKESGPVLVKPTETLTLTCTVSGIDLSHDDISWVRQAPGKGLEWVGIISYAGSTYYASWAKGRLTISKDTSKNQVVLTMTNMDPVDTATYYCARGVPAYSHGGDLWGQGTLVTVSSASTKGPSVFPLAPSSKSTSGGTAALGCLVKDYFPEPVTVSWNSGALTSGVHTFPAVLQSSGLYSLSSVVTVPSSSLGTQTYICNVNHKPSNTKVDKKVEPKSCDKTHTCPPCPLPELLTGPSVFLFPPKPKDTLMISRTPEVTCVVVDVSDEDPEVKFNWYVDGVEVHNAKTKPREEQYNSTYRVVSVLTVLHQDWLNGKEYKCKVSNKALPKPIEKTISKAKGQPREPQVYTLPPSREEMTKNQVSLTCLVKGFYPSDIAVEWESNGQPENNYKTTPPVLDSDGSFFLYSKLTVDKSRWQQGNVFSCSVMHEALHNHYTQKSLSLSP
light: DIVMTQSPATLSLSPGERATLSCTSSQSVYHANWLSWFQQKPGQPPKLLIYWASTLAYGVPSRFSGSGSGTDFTLTISSLQPEDAATYYCAGGYGGGRYAFGQGTKVEIKRTVAAPSVFIFPPSDEQLKSGTASVVCLLNNFYPREAKVQWKVDNALQSGNSQESVTEQDSKDSTYSLSSTLTLSKADYEKHKVYACEVTHQGLSSPVTKSFNRGEC
notes: copies: 2 + 2
B2: M103205H795-MY473/M103202L889-SK1 (antibody, human IgG1, kappa)
heavy: B1 heavy with L233T
light: B1 light
notes: copies: 2 + 2
B3: M103205H795-MY476/M103202L889-SK1 (antibody, human IgG1, kappa)
heavy: B1 heavy with L233Y
light: B1 light
notes: copies: 2 + 2
B4: M103205H795-MY474/M103202L889-SK1 (antibody, human IgG1, kappa)
heavy: B1 heavy with L233V
light: B1 light
notes: copies: 2 + 2
B5: M103205H795-MY467/M103202L889-SK1 (antibody, human IgG1, kappa)
heavy: B1 heavy with L233M
light: B1 light
notes: copies: 2 + 2
B6: M103205H795-MY475/M103202L889-SK1 (antibody, human IgG1, kappa)
heavy: B1 heavy with L233W
light: B1 light
notes: copies: 2 + 2
B7: M103205H795-MY469/M103202L889-SK1 (antibody, human IgG1, kappa)
heavy: B1 heavy with L233P
light: B1 light
notes: copies: 2 + 2
B8: M103205H795-MY468/M103202L889-SK1 (antibody, human IgG1, kappa)
heavy: B1 heavy with L233N
light: B1 light
notes: copies: 2 + 2
B9: M103205H795-MY471/M103202L889-SK1 (antibody, human IgG1, kappa)
heavy: B1 heavy with L233R
light: B1 light
notes: copies: 2 + 2
B10: M103205H795-MY472/M103202L889-SK1 (antibody, human IgG1, kappa)
heavy: B1 heavy with L233S
light: B1 light
notes: copies: 2 + 2
B11: M103205H795-MY470/M103202L889-SK1 (antibody, human IgG1, kappa)
heavy: B1 heavy with L233Q
light: B1 light
notes: copies: 2 + 2
B12: M103205H795-MY341/M103202L889-SK1 (antibody, human IgG1, kappa)
heavy: B1 heavy with L233A, T238L, Q297L, K328T, P398K
light: B1 light
notes: Substitutions introduced into M103205H795-SG1, expressed with M103202L889-SK1 as light chain; EU numbering
B13: M103205H795-MY380/M103202L889-SK1 (antibody, human IgG1, kappa)
heavy: B1 heavy with L233A, T238N, D270E, P398K
light: B1 light
notes: as for B12
B14: M103205H795-MY342/M103202L889-SK1 (antibody, human IgG1, kappa)
heavy: B1 heavy with L233A, T238L, Q297L, P398M
light: B1 light
notes: as for B12
B15: M103205H795-MY209/M103202L889-SK1 (antibody, human IgG1, kappa)
heavy: B1 heavy with L233A, T238N, Q297L, K328T
light: B1 light
notes: as for B12
B16: M103205H795-MY283/M103202L889-SK1 (antibody, human IgG1, kappa)
heavy: B1 heavy with L233A, Q297L
light: B1 light
notes: as for B12
B17: M103205H795-MY340/M103202L889-SK1 (antibody, human IgG1, kappa)
heavy: B1 heavy with L233A, T238L, Q297L, P398K
light: B1 light
notes: as for B12
B18: M103205H795-MY339/M103202L889-SK1 (antibody, human IgG1, kappa)
heavy: B1 heavy with L233A, T238L, K328T, P398K
light: B1 light
notes: as for B12
B19: M103205H795-MY386/M103202L889-SK1 (antibody, human IgG1, kappa)
heavy: B1 heavy with L233A, T238L, Q297L, K328T
light: B1 light
notes: as for B12

Target: T1, human FcγRIIb extracellular domain, His-tagged (human, UniProt P31994 43-217)
T1 construct: also called FcgRIIb (human); not shown: C-terminal His-tag
T1 sequence: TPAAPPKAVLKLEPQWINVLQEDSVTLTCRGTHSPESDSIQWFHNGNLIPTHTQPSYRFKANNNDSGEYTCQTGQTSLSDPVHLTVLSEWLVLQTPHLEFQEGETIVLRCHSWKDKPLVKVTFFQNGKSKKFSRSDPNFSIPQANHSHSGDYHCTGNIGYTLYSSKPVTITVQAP
Assay: SPR (BIACORE), captured antibody, FcgR as analyte

| Binder | Kd [µM] |
| --- | --- |
| B1 | 1.4 |
| B2 | 2.2 |
| B3 | 1.2 |
| B4 | 2 |
| B5 | 2 |
| B6 | 1.1 |
| B7 | 2.4 |
| B8 | 2.6 |
| B9 | 2.8 |
| B10 | 2.5 |
| B11 | 2.7 |

Target: T2, human FcγRIIaH extracellular domain with C-terminal His-tag (human, UniProt P12318 34-217)
T2 construct: also called human FcgRIIaH; FcγRIIa (type H)
T2 sequence: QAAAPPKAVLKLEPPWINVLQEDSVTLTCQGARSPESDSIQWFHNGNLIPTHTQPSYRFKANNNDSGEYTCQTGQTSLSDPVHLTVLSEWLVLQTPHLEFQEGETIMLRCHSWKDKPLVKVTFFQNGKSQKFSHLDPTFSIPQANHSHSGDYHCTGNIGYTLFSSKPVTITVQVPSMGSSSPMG
Assay: SPR (BIACORE); KD of SG1 / KD of variant;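 note: relative to parent M103205H795-SG1 carrying the SG1 human heavy chain constant region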

| Binder | KD fold (SG1 = 1) [fold] |
| --- | --- |
| B12 | 2.7 |
| B13 | 1.5 |
| B14 | 1.9 |
| B15 | 1.2 |
| B16 | 4.9 |
| B17 | 2.2 |
| B18 | 1.7 |
| B19 | 0.9 |

Target: T3, human FcγRIIaR extracellular domain with C-terminal His-tag (human, UniProt P12318 34-217)
T3 construct: also called human FcgRIIaR; FcγRIIa (type R)
T3 chain: T2 sequence with H134R
Assay: SPR (BIACORE); KD of SG1 / KD of variant;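 note: relative to parent M103205H795-SG1 carrying the SG1 human heavy chain constant region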

| Binder | KD fold (SG1 = 1) [fold] |
| --- | --- |
| B12 | 2.6 |
| B13 | 1.3 |
| B14 | 1.1 |
| B15 | 1.3 |
| B16 | 1.1 |
| B17 | 1.3 |
| B18 | 1.7 |
| B19 | 0.6 |

Target: T4, cynomolgus monkey FcγRIIa3 extracellular domain with C-terminal His-tag (cynomolgus monkey)
T4 construct: also called cyno FcgRIIa3; cynoFcγRIIa3
T4 chain: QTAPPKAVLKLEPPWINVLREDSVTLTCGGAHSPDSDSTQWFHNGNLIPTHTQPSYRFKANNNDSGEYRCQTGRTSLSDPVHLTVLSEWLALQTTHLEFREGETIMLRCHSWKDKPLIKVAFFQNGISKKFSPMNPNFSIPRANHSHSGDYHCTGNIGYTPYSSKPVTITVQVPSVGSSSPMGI
Assay: SPR (BIACORE); KD of SG1 / KD of variant;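 note: relative to parent M103205H795-SG1 carrying the SG1 human heavy chain constant region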

| Binder | KD fold (SG1 = 1) [fold] |
| --- | --- |
| B12 | 1.9 |
| B13 | 3.2 |
| B14 | 0.3 |
| B15 | 8.9 |
| B16 | 3.5 |
| B17 | 0.7 |
| B18 | 1.7 |
| B19 | 1.1 |

Target: T5, human FcγRIIIaV extracellular domain with C-terminal His-tag (human, UniProt P08637 17-208)
T5 construct: also called human FcgRIIIaV
Assay: SPR (BIACORE); KD of SG1 / KD of variant;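 note: relative to parent M103205H795-SG1 carrying the SG1 human heavy chain constant region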

T5 sequence (P08637 17-208 F176V): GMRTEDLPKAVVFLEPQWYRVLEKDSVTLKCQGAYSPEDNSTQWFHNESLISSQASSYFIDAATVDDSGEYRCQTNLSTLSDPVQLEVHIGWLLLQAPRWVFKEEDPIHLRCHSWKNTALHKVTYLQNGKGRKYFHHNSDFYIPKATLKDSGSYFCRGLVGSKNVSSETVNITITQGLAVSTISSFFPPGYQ

| Binder | KD fold (SG1 = 1) [fold] |
| --- | --- |
| B12 | 0.12 |
| B13 | 0.08 |
| B14 | 0.03 |
| B15 | 0.06 |
| B16 | 0.14 |
| B17 | 0.05 |
| B18 | 0.14 |
| B19 | 0.03 |

Target: T6, human FcγRIIb extracellular domain with C-terminal His-tag (human, UniProt P31994 43-217)
T6 construct: also called human FcgRIIb
T6 sequence: T1 sequence
Assay: SPR (BIACORE); KD of SG1 / KD of variant

| Binder | KD fold (SG1 = 1) [fold] |
| --- | --- |
| B12 | 2.6 |
| B13 | 9.6 |
| B14 | 1.2 |
| B15 | 9.2 |
| B16 | 2.6 |
| B17 | 1.4 |
| B18 | 1.5 |
| B19 | 1 |

Target: T7, cynomolgus monkey FcγRIIa1 extracellular domain with C-terminal His-tag (cynomolgus monkey)
T7 construct: also called cyno FcgRIIa1; cynoFcγRIIa1
T7 chain: T4 chain with T95P, A121T, S128A, P133H, N135D
Assay: SPR (BIACORE); KD of SG1 / KD of variant

| Binder | KD fold (SG1 = 1) [fold] |
| --- | --- |
| B12 | 1.2 |
| B13 | 3.4 |
| B14 | 0.6 |
| B15 | 5.1 |
| B16 | 2.3 |
| B17 | 0.7 |
| B18 | 0.9 |
| B19 | 0.6 |

Target: T8, cynomolgus monkey FcγRIIb extracellular domain with C-terminal His-tag (cynomolgus monkey)
T8 construct: also called cyno FcgRIIb; cynoFcγRIIb
T8 chain: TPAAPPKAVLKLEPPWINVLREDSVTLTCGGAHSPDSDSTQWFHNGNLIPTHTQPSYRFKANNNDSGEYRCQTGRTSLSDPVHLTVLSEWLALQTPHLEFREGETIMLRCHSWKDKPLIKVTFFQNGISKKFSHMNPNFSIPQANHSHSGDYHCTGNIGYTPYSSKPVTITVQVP
Assay: SPR (BIACORE); KD of SG1 / KD of variant

| Binder | KD fold (SG1 = 1) [fold] |
| --- | --- |
| B12 | 3 |
| B13 | 6.2 |
| B14 | 1.4 |
| B15 | 9.5 |
| B16 | 4.3 |
| B17 | 1.6 |
| B18 | 2.4 |
| B19 | 1.1 |

Target: T9, cynomolgus monkey FcγRIIIaS extracellular domain with C-terminal His-tag (cynomolgus monkey, UniProt Q8SPW2 21-206 at identity 1.00))
T9 construct: also called cyno FcgRIIIaS; cynoFcγRIIIaS
T9 chain: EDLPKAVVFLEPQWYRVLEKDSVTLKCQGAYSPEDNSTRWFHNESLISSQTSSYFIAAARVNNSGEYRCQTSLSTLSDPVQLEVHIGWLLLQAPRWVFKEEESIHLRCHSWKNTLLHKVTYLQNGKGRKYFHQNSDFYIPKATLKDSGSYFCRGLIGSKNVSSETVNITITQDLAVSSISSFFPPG
Assay: SPR (BIACORE); KD of SG1 / KD of variant

| Binder | KD fold (SG1 = 1) [fold] |
| --- | --- |
| B12 | 0.38 |
| B13 | 0.13 |
| B14 | 0.14 |
| B15 | 0.16 |
| B16 | 0.16 |
| B17 | 0.16 |
| B18 | 0.47 |
| B19 | 0.14 |
